Measured values reported in IntAct's records for PubMed 15637807.

B1: Caspase recruitment domain-containing protein 19 (Homo sapiens), Q96LW7 (parent)
chain: MTDQTYCDRLVQDTPFLTGHGRLSEQQVDRIILQLNRYYPQILTNKEAEKFRNPKASLRVRLCDLLSHLQRSGERDCQEFYRALYIHAQPLHSRLPSRHALRKFHITNHACLVLARGGHPSLPLMAWMSSMTTQVCCSPGLASPLASAPPQRPPSGPEGRVWQAQAVQMLVSVSHFLPLPPSLSHGSFHTAWGILYVHSCPSFSNLIPRGSLHVCVDSNLVPTAAWRS
partner: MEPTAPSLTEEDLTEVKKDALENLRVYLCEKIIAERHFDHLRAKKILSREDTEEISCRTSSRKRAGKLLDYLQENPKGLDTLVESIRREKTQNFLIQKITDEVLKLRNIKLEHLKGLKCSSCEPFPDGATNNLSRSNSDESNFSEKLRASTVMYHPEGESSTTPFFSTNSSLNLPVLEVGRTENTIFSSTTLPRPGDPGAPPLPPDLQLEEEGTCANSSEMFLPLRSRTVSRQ

Variants of: B1
Settings: with bcl10_human BCL10, O95999
For MTDQTYCDRLVQDTPFLTGHGRLSEQQVDRIILQLNRYYPQILTNKEAEKFRNPKASLRVRLCDALSHLQRSGERDCQEFYRALYIHAQPLHSRLPSRHALRKFHITNHACLVLARGGHPSLPLMAWMSSMTTQVCCSPGLASPLASAPPQRPPSGPEGRVWQAQAVQMLVSVSHFLPLPPSLSHGSFHTAWGILYVHSCPSFSNLIPRGSLHVCVDSNLVPTAAWRS [L65A], the “effect of a mutation on the interaction” value was “disrupting interaction”.
